Results as given in article PMC5382172 (Frontiers in Molecular Neuroscience, 2017).

T1: C. elegans GluClβWT subunit (GLC-2) (C. elegans) (UniProt Q17328)
T1 sequence: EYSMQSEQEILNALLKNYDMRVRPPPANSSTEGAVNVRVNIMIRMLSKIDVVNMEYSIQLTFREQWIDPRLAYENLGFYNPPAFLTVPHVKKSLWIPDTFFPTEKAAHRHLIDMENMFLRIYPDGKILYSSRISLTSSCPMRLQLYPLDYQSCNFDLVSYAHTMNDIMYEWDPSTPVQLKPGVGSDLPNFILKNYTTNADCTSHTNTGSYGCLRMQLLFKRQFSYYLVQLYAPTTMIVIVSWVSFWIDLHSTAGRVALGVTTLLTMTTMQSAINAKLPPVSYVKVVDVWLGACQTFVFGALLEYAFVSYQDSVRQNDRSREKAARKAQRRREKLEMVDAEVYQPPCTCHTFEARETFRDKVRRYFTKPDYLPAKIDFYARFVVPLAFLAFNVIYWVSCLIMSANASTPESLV

B1: C. elegans GluClα (GLC-1) subunit, P192E (receptor)
chain: QQARTKSQDIFEDDNDNGTTTLESLARLTSPIHIPIEQPQTSDSKILAHLFTSGYDFRVRPPTDNGGPVVVSVNMLLRTISKIDVVNMEYSAQLTLRESWIDKRLSYGVKGDGQPDFVILTVGHQIWMPDTFFPNEKQAYKHTIDKPNVLIRIHNDGTVLYSVRISLVLSCEMYLQYYPMDVQQCSIDLASYAYTTKDIEYLWKEHSPLQLKVGLSSSLPSFQLTNTSTTYCTSVTNTGIYSCLRTTIQLKREFSFYLLQLYIPSCMLVIVSWVSFWFDRTAIPARVTLGVTTLLTMTAQSAGINSQLPPVSYIKAIDVWIGACMTFIFCALLEFALVNHIANKQGVERKARTEREKAEIPLLQNLHNDVPTKVFNQEEKVRTVPLNRRQMNSFLNLLETKTEWNDISKRVDLISRALFPVLFFVFNILYWSRFGQQNVLF
B2: C. elegans GluClα (GLC-1) subunit, E273R (receptor)
chain: QQARTKSQDIFEDDNDNGTTTLESLARLTSPIHIPIEQPQTSDSKILAHLFTSGYDFRVRPPTDNGGPVVVSVNMLLRTISKIDVVNMEYSAQLTLRESWIDKRLSYGVKGDGQPDFVILTVGHQIWMPDTFFPNEKQAYKHTIDKPNVLIRIHNDGTVLYSVRISLVLSCPMYLQYYPMDVQQCSIDLASYAYTTKDIEYLWKEHSPLQLKVGLSSSLPSFQLTNTSTTYCTSVTNTGIYSCLRTTIQLKRRFSFYLLQLYIPSCMLVIVSWVSFWFDRTAIPARVTLGVTTLLTMTAQSAGINSQLPPVSYIKAIDVWIGACMTFIFCALLEFALVNHIANKQGVERKARTEREKAEIPLLQNLHNDVPTKVFNQEEKVRTVPLNRRQMNSFLNLLETKTEWNDISKRVDLISRALFPVLFFVFNILYWSRFGQQNVLF
B3: C. elegans GluClα (GLC-1) subunit, Y194R (receptor)
chain: QQARTKSQDIFEDDNDNGTTTLESLARLTSPIHIPIEQPQTSDSKILAHLFTSGYDFRVRPPTDNGGPVVVSVNMLLRTISKIDVVNMEYSAQLTLRESWIDKRLSYGVKGDGQPDFVILTVGHQIWMPDTFFPNEKQAYKHTIDKPNVLIRIHNDGTVLYSVRISLVLSCPMRLQYYPMDVQQCSIDLASYAYTTKDIEYLWKEHSPLQLKVGLSSSLPSFQLTNTSTTYCTSVTNTGIYSCLRTTIQLKREFSFYLLQLYIPSCMLVIVSWVSFWFDRTAIPARVTLGVTTLLTMTAQSAGINSQLPPVSYIKAIDVWIGACMTFIFCALLEFALVNHIANKQGVERKARTEREKAEIPLLQNLHNDVPTKVFNQEEKVRTVPLNRRQMNSFLNLLETKTEWNDISKRVDLISRALFPVLFFVFNILYWSRFGQQNVLF
B4: C. elegans GluClα (GLC-1) subunit, P192Y (receptor)
chain: QQARTKSQDIFEDDNDNGTTTLESLARLTSPIHIPIEQPQTSDSKILAHLFTSGYDFRVRPPTDNGGPVVVSVNMLLRTISKIDVVNMEYSAQLTLRESWIDKRLSYGVKGDGQPDFVILTVGHQIWMPDTFFPNEKQAYKHTIDKPNVLIRIHNDGTVLYSVRISLVLSCYMYLQYYPMDVQQCSIDLASYAYTTKDIEYLWKEHSPLQLKVGLSSSLPSFQLTNTSTTYCTSVTNTGIYSCLRTTIQLKREFSFYLLQLYIPSCMLVIVSWVSFWFDRTAIPARVTLGVTTLLTMTAQSAGINSQLPPVSYIKAIDVWIGACMTFIFCALLEFALVNHIANKQGVERKARTEREKAEIPLLQNLHNDVPTKVFNQEEKVRTVPLNRRQMNSFLNLLETKTEWNDISKRVDLISRALFPVLFFVFNILYWSRFGQQNVLF
B5: C. elegans GluClα (GLC-1) subunit, P192M (receptor)
chain: QQARTKSQDIFEDDNDNGTTTLESLARLTSPIHIPIEQPQTSDSKILAHLFTSGYDFRVRPPTDNGGPVVVSVNMLLRTISKIDVVNMEYSAQLTLRESWIDKRLSYGVKGDGQPDFVILTVGHQIWMPDTFFPNEKQAYKHTIDKPNVLIRIHNDGTVLYSVRISLVLSCMMYLQYYPMDVQQCSIDLASYAYTTKDIEYLWKEHSPLQLKVGLSSSLPSFQLTNTSTTYCTSVTNTGIYSCLRTTIQLKREFSFYLLQLYIPSCMLVIVSWVSFWFDRTAIPARVTLGVTTLLTMTAQSAGINSQLPPVSYIKAIDVWIGACMTFIFCALLEFALVNHIANKQGVERKARTEREKAEIPLLQNLHNDVPTKVFNQEEKVRTVPLNRRQMNSFLNLLETKTEWNDISKRVDLISRALFPVLFFVFNILYWSRFGQQNVLF
B6: C. elegans GluClα (GLC-1) subunit, SSS→GSD (positions 236–238) (receptor)
chain: QQARTKSQDIFEDDNDNGTTTLESLARLTSPIHIPIEQPQTSDSKILAHLFTSGYDFRVRPPTDNGGPVVVSVNMLLRTISKIDVVNMEYSAQLTLRESWIDKRLSYGVKGDGQPDFVILTVGHQIWMPDTFFPNEKQAYKHTIDKPNVLIRIHNDGTVLYSVRISLVLSCPMYLQYYPMDVQQCSIDLASYAYTTKDIEYLWKEHSPLQLKVGLGSDLPSFQLTNTSTTYCTSVTNTGIYSCLRTTIQLKREFSFYLLQLYIPSCMLVIVSWVSFWFDRTAIPARVTLGVTTLLTMTAQSAGINSQLPPVSYIKAIDVWIGACMTFIFCALLEFALVNHIANKQGVERKARTEREKAEIPLLQNLHNDVPTKVFNQEEKVRTVPLNRRQMNSFLNLLETKTEWNDISKRVDLISRALFPVLFFVFNILYWSRFGQQNVLF
B7: C. elegans GluClα (GLC-1) subunit, F276W (receptor)
chain: QQARTKSQDIFEDDNDNGTTTLESLARLTSPIHIPIEQPQTSDSKILAHLFTSGYDFRVRPPTDNGGPVVVSVNMLLRTISKIDVVNMEYSAQLTLRESWIDKRLSYGVKGDGQPDFVILTVGHQIWMPDTFFPNEKQAYKHTIDKPNVLIRIHNDGTVLYSVRISLVLSCPMYLQYYPMDVQQCSIDLASYAYTTKDIEYLWKEHSPLQLKVGLSSSLPSFQLTNTSTTYCTSVTNTGIYSCLRTTIQLKREFSWYLLQLYIPSCMLVIVSWVSFWFDRTAIPARVTLGVTTLLTMTAQSAGINSQLPPVSYIKAIDVWIGACMTFIFCALLEFALVNHIANKQGVERKARTEREKAEIPLLQNLHNDVPTKVFNQEEKVRTVPLNRRQMNSFLNLLETKTEWNDISKRVDLISRALFPVLFFVFNILYWSRFGQQNVLF
B8: C. elegans GluClα (GLC-1) subunit, F276A (receptor)
chain: QQARTKSQDIFEDDNDNGTTTLESLARLTSPIHIPIEQPQTSDSKILAHLFTSGYDFRVRPPTDNGGPVVVSVNMLLRTISKIDVVNMEYSAQLTLRESWIDKRLSYGVKGDGQPDFVILTVGHQIWMPDTFFPNEKQAYKHTIDKPNVLIRIHNDGTVLYSVRISLVLSCPMYLQYYPMDVQQCSIDLASYAYTTKDIEYLWKEHSPLQLKVGLSSSLPSFQLTNTSTTYCTSVTNTGIYSCLRTTIQLKREFSAYLLQLYIPSCMLVIVSWVSFWFDRTAIPARVTLGVTTLLTMTAQSAGINSQLPPVSYIKAIDVWIGACMTFIFCALLEFALVNHIANKQGVERKARTEREKAEIPLLQNLHNDVPTKVFNQEEKVRTVPLNRRQMNSFLNLLETKTEWNDISKRVDLISRALFPVLFFVFNILYWSRFGQQNVLF

The binders below were run against T1, C. elegans GluClβWT subunit (GLC-2) (C. elegans).
Work on B1 yielded a whole-cell current amplitude in response to the Glu-EC50 concentration, CHO cells co-transfected with both subunits, +60 mV of 3.1 nA. B2 gave a whole-cell current amplitude in response to the Glu-EC50 concentration, CHO cells co-transfected with both subunits, +60 mV of 2.2 nA. B3 showed a whole-cell current amplitude in response to the Glu-EC50 concentration, CHO cells co-transfected with both subunits, +60 mV of 5.9 nA. For B4, the whole-cell current amplitude in response to the Glu-EC50 concentration, CHO cells co-transfected with both subunits, +60 mV was 2.1 nA. Binder B5 has a whole-cell current amplitude in response to the Glu-EC50 concentration, CHO cells co-transfected with both subunits, +60 mV of 3.2 nA. B6 showed a whole-cell current amplitude in response to the Glu-EC50 concentration, CHO cells co-transfected with both subunits, +60 mV of 2.9 nA. In the case of B7, the whole-cell current amplitude in response to the Glu-EC50 concentration, CHO cells co-transfected with both subunits, +60 mV is reported as 3 nA. B8 was tested, and the whole-cell current amplitude in response to the Glu-EC50 concentration, CHO cells co-transfected with both subunits, +60 mV was 3.1 nA.
